According to patent US20040116336A1, “Peptide derivatives” (priority 2002, published 2004):
Starred links: 1 amine or outer side, 2 acyl side, 3 side chain; linkers in the order of their positions; H or OH if unused. Non-standard residues stand in square brackets, D forms with d. No end group written: not given here. *: point of attachment. Phe(4-Cl) = N[C@@H](Cc1ccc(Cl)cc1)C(=O)O; Adipoyl = O=C(CCCCC(=O)[*:2])[*:1]; Cha = N[C@@H](CC1CCCCC1)C(=O)O; pGlu = O=C1CC[C@@H](C(=O)O)N1; Morpholide = C1CN(*)CCO1; Nle = CCCC[C@H](N)C(=O)O; Dap = NC[C@H](N)C(=O)O; Hexanoyl = CCCCCC(=O)*

B1: Arg-Arg-Gln-Arg-Pro-Arg-Leu-Ser-His-Lys-Gly-Pro-Met(O) (peptide)
chain: RRQRPRLSHKGPX
modifications: oxidized C-terminal residue; peptide; Xaa means Met(O)
B2: pGlu-Arg-Pro-Arg-Leu-Ser-Phe-Lys-Gly-Pro-Met-Pro-Phe (peptide)
chain: XRPRLSFKGPMPF
modifications: N-terminal pGlu; peptide derivative; Xaa means pGlu
B3: Arg-Pro-Arg-Leu-Ser-His-Lys-Gly-Pro-Met-Pro-Cha (peptide)
chain: RPRLSHKGPMPX
modifications: C-terminal Cha; peptide derivative; Xaa means Cha
B4: Arg-Pro-Ala-Leu-Ser-His-Lys-Gly-Pro-Cha-Pro-Phe(Cl) (peptide)
chain: RPALSHKGP[Cha]PX
modifications: not fully specified (residue 12); printed as Arg-Pro-Ala-Leu-Ser-His-Lys-Gly-Pro-Cha-Pro-Phe(Cl)
B5: pGlu-Arg-Pro-Arg-Leu-Phe-Arg-Arg-Gly-Pro-Met-Pro-Phe (peptide)
chain: [pGlu]RPRLFRRGPMPF
B6: Arg-Arg-Lys(Arg-Arg)-Arg-Pro-Arg-Leu-Ser-His-Lys-Gly-Pro-Met-Pro-Phe (peptide)
chain: RRXRPRLSHKGPMPF
modifications: N-terminal branched Arg-Arg-Lys(Arg-Arg); peptide derivative; Xaa means Lys(Arg-Arg)
B7: pGlu-Arg-Pro-Arg-Leu-Ser-His-Arg-Gly-Pro-Met-Pro-Phe (peptide)
chain: XRPRLSHRGPMPF
modifications: N-terminal pGlu; peptide derivative; Xaa means pGlu
B8: Arg-Pro-Arg-Leu-Phe-His-Lys-Gly-Pro-Cha-Phe(Cl) (peptide)
chain: RPRLFHKGP[Cha]X
modifications: not fully specified (residue 11); printed as Arg-Pro-Arg-Leu-Phe-His-Lys-Gly-Pro-Cha-Phe(Cl)
B9: pGlu-Arg-Pro-Arg-Leu-Ser-His-Lys-Gly-Pro-Met-Nal(2) (peptide)
chain: XRPRLSHKGPMX
modifications: N-terminal pGlu; C-terminal Nal(2); peptide derivative; Xaa on the 1st position means pGlu; Xaa on the 12th position means Nal(2)
B10: Arg-Pro-Arg-Leu-Ser-Ala-Arg-Gly-Pro-Cha-Pro-Phe (peptide)
chain: RPRLSARGP[Cha]PF
B11: Arg-Pro-Arg-Ala-Ser-His-Lys-Gly-Pro-Cha-Pro-Phe(Cl) (peptide)
chain: RPRASHKGP[Cha]PX
modifications: not fully specified (residue 12); printed as Arg-Pro-Arg-Ala-Ser-His-Lys-Gly-Pro-Cha-Pro-Phe(Cl)
B12: Arg-Pro-Arg-Leu-Phe-His-Lys-Gly-Pro-Cha-Pro-Phe(Cl) (peptide)
chain: RPRLFHKGP[Cha]PX
modifications: not fully specified (residue 12); printed as Arg-Pro-Arg-Leu-Phe-His-Lys-Gly-Pro-Cha-Pro-Phe(Cl)
B13: Arg-Pro-Arg-Leu-Phe-His-Lys-Gly-Pro-Cha-Pro-Phe (peptide)
chain: RPRLFHKGP[Cha]PF
B14: Arg-Pro-Arg-Leu-Ser-His-Lys-Gly-Pro-Met-Cha (peptide)
chain: RPRLSHKGPMX
modifications: C-terminal Cha; peptide derivative; Xaa means Cha
B15: Arg-Pro-Arg-Leu-Phe-Ala-Arg-Gly-Pro-Cha-Pro-Phe(Cl) (peptide)
chain: RPRLFARGP[Cha]PX
modifications: not fully specified (residue 12); printed as Arg-Pro-Arg-Leu-Phe-Ala-Arg-Gly-Pro-Cha-Pro-Phe(Cl)
B16: pGlu-Arg-Pro-Arg-Leu-Ser-Arg-Arg-Gly-Pro-Met-Pro-Phe (peptide)
chain: [pGlu]RPRLSRRGPMPF
B17: pGlu-Arg-Pro-Arg-Leu-Ser-Leu-Lys-Gly-Pro-Met-Pro-Phe (peptide)
chain: XRPRLSLKGPMPF
modifications: N-terminal pGlu; peptide derivative; Xaa means pGlu
B18: pGlu-Arg-Pro-Arg-Leu-Ser-His-Phe-Gly-Pro-Met-Pro-Phe (peptide)
chain: XRPRLSHFGPMPF
modifications: N-terminal pGlu; peptide derivative; Xaa means pGlu
B19: Arg-Pro-Arg-Leu-Ser-His-Ala-Gly-Pro-Cha-Pro-Phe(Cl) (peptide)
chain: RPRLSHAGP[Cha]PX
modifications: not fully specified (residue 12); printed as Arg-Pro-Arg-Leu-Ser-His-Ala-Gly-Pro-Cha-Pro-Phe(Cl)
B20: Arg-Pro-Arg-Leu-Ser-His-Lys-Gly-Pro-Met-Pro-Nal(2) (peptide)
chain: RPRLSHKGPMPX
modifications: C-terminal Nal(2); peptide derivative; Xaa means Nal(2)
B21: Arg-Arg-Gln-Arg-Pro-Arg-Leu-Ser-Ala-Arg-Gly-NMe2 (peptide)
chain: RRQRPRLSARG-NMe2
B22: pGlu-Arg-Pro-Arg-Leu-Ser-Ala-Lys-Gly-Pro-Met-Pro-Phe (peptide)
chain: XRPRLSAKGPMPF
modifications: N-terminal pGlu; peptide derivative; Xaa means pGlu
B23: Arg-Pro-Arg-Leu-Ser-Dap(C6)-Arg-Gly-Pro-Cha-Pro-Phe(Cl) (peptide)
peptide: RPRLS[Dap](Hexanoyl)RGP[Cha]P[Phe(4-Cl)]
B24: pGlu-Arg-Pro-Arg-Leu-Ser-His-Leu-Gly-Pro-Met-Pro-Phe (peptide)
chain: XRPRLSHLGPMPF
modifications: N-terminal pGlu; peptide derivative; Xaa means pGlu
B25: Arg-Arg-Gln-Arg-Pro-Arg-Leu-Ser-His-Lys-Gly-Pro-Cha-Pro-Phe(Cl) (peptide)
chain: RRQRPRLSHKGP[Cha]PX
modifications: not fully specified (residue 15); printed as Arg-Arg-Gln-Arg-Pro-Arg-Leu-Ser-His-Lys-Gly-Pro-Cha-Pro-Phe(Cl)
B26: Arg-Arg-Gln-Arg-Pro-Arg-Leu-Ser-Ala-Arg-Gly-Pro-Cha (peptide)
chain: RRQRPRLSARGPX
modifications: C-terminal Cha; peptide derivative; Xaa means Cha.
B27: Arg-Pro-Arg-Leu-Ser-Ala-Arg-Gly-Pro-Cha-Phe(Cl) (peptide)
chain: RPRLSARGP[Cha]X
modifications: not fully specified (residue 11); printed as Arg-Pro-Arg-Leu-Ser-Ala-Arg-Gly-Pro-Cha-Phe(Cl)
B28: Arg-Pro-Arg-Leu-Ser-His-Lys-Gly-Pro-Met-Nal(2) (peptide)
chain: RPRLSHKGPMX
modifications: Nal(2) non-natural residue; peptide derivative; Xaa means Nal(2)
B29: Arg-Arg-Gln-Arg-Pro-Arg-Leu-Ser-His-Lys-Gly-Pro-Nle-Pro-Tyr (peptide)
chain: RRQRPRLSHKGP[Nle]PY
B30: pGlu-Arg-Pro-Arg-Leu-Ser-Arg-Lys-Gly-Pro-Met-Pro-Phe (peptide)
chain: XRPRLSRKGPMPF
modifications: N-terminal pGlu; peptide derivative; Xaa means pGlu
B31: pGlu-Arg-Pro-Arg-Leu-Ser-His-Lys-Gly-Pro-Cha-Pro-Phe (peptide)
chain: XRPRLSHKGPXPF
modifications: N-terminal pGlu; Cha non-natural residue; peptide derivative; Xaa on the 1st position means pGlu.; Xaa on the 11th position means Cha.
B32: Arg-Pro-Arg-Leu-Ser-Dap(Adi)-Arg-Gly-Pro-Cha-Pro-Phe(Cl) (peptide)
peptide: RPRLS[Dap](Adipoyl)RGP[Cha]P[Phe(4-Cl)]
B33: Arg-Arg-Gln-Arg-Pro-Arg-Leu-Ser-Ala-Arg-Gly-Mor (peptide)
chain: RRQRPRLSARG-Morpholide
B34: Arg-Pro-Arg-Leu-Ser-Ala-Arg-Gly-Pro-Cha-Pro-Phe(Cl) (peptide)
chain: RPRLSARGP[Cha]PX
modifications: not fully specified (residue 12); printed as Arg-Pro-Arg-Leu-Ser-Ala-Arg-Gly-Pro-Cha-Pro-Phe(Cl)
B35: pGlu-Arg-Pro-Arg-Leu-Phe-His-Lys-Gly-Pro-Met-Pro-Phe (peptide)
chain: XRPRLFHKGPMPF
modifications: N-terminal pGlu; peptide derivative; Xaa means pGlu
B36: pGlu-Arg-Pro-Arg-Leu-Ser-His-Lys-Gly-Pro-Met-Cha (peptide)
chain: XRPRLSHKGPMX
modifications: N-terminal pGlu; C-terminal Cha; peptide derivative; Xaa on the 1st position means pGlu; Xaa on the 12th position means Cha

What was measured:
[1] = biological target: APJ (orphan G protein-coupled receptor protein); assay: cell-based or functional assay
Chain of APJ (orphan G protein-coupled receptor protein) (P35414 whole entry): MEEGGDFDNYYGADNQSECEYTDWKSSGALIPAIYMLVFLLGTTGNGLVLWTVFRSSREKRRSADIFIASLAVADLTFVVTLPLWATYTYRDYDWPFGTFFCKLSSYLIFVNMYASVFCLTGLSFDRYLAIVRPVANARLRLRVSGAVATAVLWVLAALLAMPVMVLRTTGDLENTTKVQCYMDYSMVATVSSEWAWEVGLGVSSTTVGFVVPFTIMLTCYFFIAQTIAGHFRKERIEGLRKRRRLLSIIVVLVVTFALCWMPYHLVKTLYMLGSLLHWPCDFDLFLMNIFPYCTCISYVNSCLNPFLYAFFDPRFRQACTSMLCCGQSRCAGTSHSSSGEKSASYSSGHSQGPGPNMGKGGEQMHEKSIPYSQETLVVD

[2] = biological target: APJ (orphan G protein-coupled receptor protein); assay: radioligand competition, compound of Ref. Ex. 2 as labelled ligand, CHO-A10 membrane fraction
[3] = biological target: APJ (orphan G protein-coupled receptor protein); assay: radioligand competition, 125I-labelled compound of Ref. Ex. 1 (100 pM), CHO-A10 membrane fraction

Row | Binder | EC50, inhibition of forskolin-stimulated cAMP production (CHO-A10 clone 6 cells) [1] [nM] | IC50 [2] [nM] | IC50 [3] [nM]
1 | B1 | 0.48 | 0.62 | 
2 | B2 | 0.24 | 0.95 | 
3 | B3 | 0.71 | 3.5 | 
4 | B4 | 0.41 | 0.15 | 0.41
5 | B5 | 0.15 | 0.81 | 
6 | B6 | 0.57 | 0.84 | 2.9
7 | B7 | 0.2 | 0.4 | 
8 | B8 | 0.43 | 0.54 | 
9 | B9 | 0.52 | 1.4 | 
10 | B10 | 0.59 | 0.084 | 2.2
11 | B11 | 0.52 | 0.17 | 0.52
12 | B12 | 1 | 0.29 | 2.7
13 | B13 | 0.46 | 0.13 | 8
14 | B14 | 0.22 | 0.51 | 
15 | B15 | 1.2 | 0.38 | 2.3
16 | B16 | 0.069 | 0.73 | 
17 | B17 | 0.16 | 0.59 | 
18 | B18 | 0.3 | 2.6 | 

Row | Binder | EC50, inhibition of forskolin-stimulated cAMP production (CHO-A10 clone 6 cells) [1] [nM] | IC50 [2] [nM] | IC50 [3] [nM]
19 | B19 | 0.58 | 0.22 | 0.58
20 | B20 | 0.1 | 0.35 | 
21 | B21 | 0.49 | 0.16 | 
22 | B22 | 0.22 | 0.21 | 
23 | B23 | 1.1 | 0.45 | 1.1
24 | B24 | 0.16 | 3.6 | 
25 | B25 | 0.53 | 0.33 | 0.47
26 | B26 | 0.55 | 0.046 | 1.4
27 | B27 | 0.65 | 0.1 | 1
28 | B28 | 0.37 | 0.61 | 
29 | B29 | 0.28 | 0.027 | 2.7
30 | B30 | 0.081 | 0.23 | 
31 | B31 | 0.35 | 0.16 | 13
32 | B32 | 0.42 | 0.13 | 0.42
33 | B33 | 1.2 | 0.26 | 
34 | B34 | 0.51 | 0.13 | 1.2
35 | B35 | 0.22 | 0.99 | 
36 | B36 | 0.3 | 1.3 | 
